The assay addresses Human immunoglobulin G (IgG) (human). Description: LSPR.

As for “Bovine serum albumin (from UniProt P02769 25-607) (natural protein)”, the LLSPR wavelength shift is below 1 nm.

For the origin of these results see paper PMC9359782.
